Reference: US20020159972A1 (PENN STATE RESEARCH FOUNDATION, published 2002)

Target: T1, restricted (IL4 independent) hIL13 receptor (human, UniProt Q14627 27-380)
T1 construct: whole, on cells; also called restricted receptor; restrictive receptor
T1 sequence (looked up): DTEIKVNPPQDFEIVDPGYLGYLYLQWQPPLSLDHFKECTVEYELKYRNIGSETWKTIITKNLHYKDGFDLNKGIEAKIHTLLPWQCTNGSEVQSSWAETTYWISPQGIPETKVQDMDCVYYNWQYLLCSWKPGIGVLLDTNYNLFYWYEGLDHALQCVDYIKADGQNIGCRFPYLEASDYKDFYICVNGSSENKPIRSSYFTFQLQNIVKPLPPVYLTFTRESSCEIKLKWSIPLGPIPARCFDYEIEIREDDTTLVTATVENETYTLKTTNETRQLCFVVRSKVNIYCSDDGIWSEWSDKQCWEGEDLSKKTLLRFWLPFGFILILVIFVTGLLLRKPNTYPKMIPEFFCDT
Assay: autoradiography competition on GBM tissue sections against ^125I-hIL13.E13Y
Procedure: Serial tissue sections were cut (10 mm) on a cryostat, thaw-mounchrome alumme-alum coated slides, and stored at 4° C. until analyzed. […] To dissociate non-specifically bound radioligand, sections were rinsed in four consecutive changes (5 minutes each) of ice-cold 0.1 M PBS. […] After drying, labeled sections were apposed to Kodak autoradiography film at −65° C. for 8 hr to 11 days.

B1: recombinant hIL4 (human interleukin 4) (ligand, UniProt P05112 25-153, looked up)
chain: HKCDITLQEIIKTLNSLTEQKTLCTELTVTDIFAASKNTTEKETFCRAATVLRQFYSHHEKDTRCLGATAQQFHRHKQLIRFLKRLDRNLWGLAGLNSCPVKEANQSTLENFLERLKTIMREKYSKCSS
binding result: no binding (tested: 100- to 500-fold molar excess)
